Test results: article PMC11745445 (2024)

B1: LV-MKK3-His-WT (His-labeled wild-type MKK3) in HT-22 cells [not stated] / RAGE (receptor for advanced glycation end products), endogenous in HT-22 cells [mouse (endogenous in HT-22)] (parent complex)
chain 1: MESPAASPPASLPQTKGKSKRKKDLRISCVSKPPVSNPTPPRNLDSRTFITIGDRNFEVEADDLVTISELGRGAYGVVEKVRHAQSGTIMAVKRIRATVNTQEQKRLLMDLDINMRTVDCFYTVTFYGALFREGDVWICMELMDTSLDKFYRKVLEKNMKIPEDILGEIAVSIVRALEHLHSKLSVIHRDVKPSNVLINKEGHVKMCDFGISGYLVDSVAKTMDAGCKPYMAPERINPELNQKGYNVKSDVWSLGITMIEMAILRFPYESWGTPFQQLKQVVEEPSPQLPADQFSPEFVDFTSQCLRKNPAERMSYLELMEHPFFTLHKTKKTDIAAFVKEILGEDS
chain 2: GQNITARIGEPLVLSCKGAPKKPPQQLEWKLNTGRTEAWKVLSPQGGPWDSVARILPNGSLLLPATGIVDEGTFRCRATNRRGKEVKSNYRVRVYQIPGKPEIVDPASELTASVPNKVGTCVSEGSYPAGTLSWHLDGKLLIPDGKETLVKEETRRHPETGLFTLRSELTVIPTQGGTHPTFSCSFSLGLPRRRPLNTAPIQLRVREPGPPEGIQLLVEPEGGIVAPGGTVTLTCAISAQPPPQVHWIKDGAPLPLAPSPVLLLPEVGHEDEGTYSCVATHPSHGPQESPPVSIRVTETGDEGPAEGSVGESGLGTLALALGILGGLGVVALLVGAILWRKRQPRREERKAPESQEDEEERAELNQSEEAEMPENGAGGP

Variants of: B1
Experiment: co-IP (IP: RAGE, IB: MKK3-His) followed by western blotting, optical density; hippocampus of MKK3-knockdown db/db mice; n = 4 in each group; parent: 3.1; read off a plot

response | Variant
~1.4 fold change relative to the db/db + MKK3-shRNA group | chain 1 K329A

Variants of: B1
Experiment: co-IP (IP: MKK3-His, IB: RAGE) followed by western blotting, optical density; hippocampus of MKK3-knockdown db/db mice; n = 4 in each group; parent: 1.7; read off a plot

response | Variant
~1.1 fold change relative to the db/db + MKK3-shRNA group | chain 1 K329A

Variants of: B1
Experiment: co-IP (IP: MKK3-His, IB: RAGE) followed by western blotting, optical density; MKK3-knockdown HT-22 cells, high-glucose stimulation 24 hours; n = 4 in each group; parent: 4; read off a plot

response | Variant
~1.4 fold change relative to the HG + MKK3-shRNA group | chain 1 K329A

Variants of: B1
Experiment: co-IP (IP: RAGE, IB: MKK3-His) followed by western blotting, optical density; MKK3-knockdown HT-22 cells, high-glucose stimulation 24 hours; n = 4 in each group; parent: 3.4; read off a plot

response | Variant
~1.1 fold change relative to the HG + MKK3-shRNA group | chain 1 K329A
